According to paper PMC4357008:

Key:
[1] = confocal imaging, filopodia shaft/cell body ratio, Lck-mCherry normalised; conditions: glycan lost; control: mEGFP-EAAT2 wild type
[2] = confocal imaging, filopodia tip/shaft intensity ratio, COS-7; conditions: glycan lost; control: mEGFP-EAAT2 wild type

B1: EAAT2: EAAT2ΔG (protein)
parent chain: MASTEGANNMPKQVEVRMHDSHLSSDEPKHRNLGMRMCDKLGKNLLLSLTVFGVILGAVCGGLLRLASPIHPDVVMLIAFPGDILMRMLKMLILPLIISSLITGLSGLDAKASGRLGTRAMVYYMSTTIIAAVLGVILVLAIHPGNPKLKKQLGPGKKNDEVSSLDAFLDLIRNLFPENLVQACFQQIQTVTKKVLVAPPSEEANTTKAVISMLNETMNEAPEETKIVIKKGLEFKDGMNVLGLIGFFIAFGIAMGKMGEQAKLMVEFFNILNEIVMKLVIMIMWYSPLGIACLICGKIIAIKDLEVVARQLGMYMITVIVGLIIHGGIFLPLIYFVVTRKNPFSFFAGIFQAWITALGTASSAGTLPVTFRCLEDNLGIDKRVTRFVLPVGATINMDGTALYEAVAAIFIAQMNGVILDGGQIVTVSLTATLASIGAASIPSAGLVTMLLILTAVGLPTEDISLLVAVDWLLDRMRTSVNVVGDSFGAGIVYHLSKSELDTIDSQHRMQEDIEMTKTQSIYDDKNHRESNSNQCVYAAHNSVVIDECKVTLAANGKSADCSVEEEPWKREK
[1]
  localisation_or_trafficking, other: shaft/cell body density ratio: decreases, 1.7 vs 2.7
[2]
  localisation_or_trafficking, other: tip/shaft density ratio: increases, 2.8 vs 1.5
